Biological target: human RXFP1 (human) (UniProt Q9HBX9)
Sequence of UniProt Q9HBX9 (Q9HBX9 whole entry): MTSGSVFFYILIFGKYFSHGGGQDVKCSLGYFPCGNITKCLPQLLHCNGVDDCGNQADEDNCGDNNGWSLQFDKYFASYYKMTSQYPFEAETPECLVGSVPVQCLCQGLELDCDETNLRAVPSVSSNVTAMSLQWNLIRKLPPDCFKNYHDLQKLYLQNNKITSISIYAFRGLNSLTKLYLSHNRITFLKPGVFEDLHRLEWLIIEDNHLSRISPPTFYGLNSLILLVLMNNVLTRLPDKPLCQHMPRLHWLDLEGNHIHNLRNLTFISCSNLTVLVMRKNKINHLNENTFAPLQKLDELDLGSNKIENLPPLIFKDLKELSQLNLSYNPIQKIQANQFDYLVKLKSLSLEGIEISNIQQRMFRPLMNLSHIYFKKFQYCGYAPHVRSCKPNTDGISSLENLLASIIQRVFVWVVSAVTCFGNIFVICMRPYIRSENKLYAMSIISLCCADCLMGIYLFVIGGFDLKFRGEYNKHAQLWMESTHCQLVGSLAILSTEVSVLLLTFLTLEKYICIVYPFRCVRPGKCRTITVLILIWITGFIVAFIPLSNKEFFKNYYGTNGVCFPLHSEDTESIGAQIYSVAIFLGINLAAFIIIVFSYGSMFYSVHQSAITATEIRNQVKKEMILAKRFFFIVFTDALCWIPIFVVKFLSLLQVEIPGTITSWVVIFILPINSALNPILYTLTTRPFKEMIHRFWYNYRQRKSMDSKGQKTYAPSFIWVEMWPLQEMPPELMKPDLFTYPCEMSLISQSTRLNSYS

Substance: native relaxin-2 (ligand)
- EC50, Gs signaling (CRE-SEAP, Figure 1c and Table S1): 0.1 nM

Source: PMC11372834
